Substitutions are numbered along the chain they refer to. Blank lines part the entries; values can stand above or below the molecule they belong to.
Tests used:
Experiment in all cases: flow cytometry, alanine-scan library in HEK-293T
hsGLUT4 R169A = molecular target: T1, hsGLUT4 R169A (human, UniProt P14672 1-509)
T1 sequence: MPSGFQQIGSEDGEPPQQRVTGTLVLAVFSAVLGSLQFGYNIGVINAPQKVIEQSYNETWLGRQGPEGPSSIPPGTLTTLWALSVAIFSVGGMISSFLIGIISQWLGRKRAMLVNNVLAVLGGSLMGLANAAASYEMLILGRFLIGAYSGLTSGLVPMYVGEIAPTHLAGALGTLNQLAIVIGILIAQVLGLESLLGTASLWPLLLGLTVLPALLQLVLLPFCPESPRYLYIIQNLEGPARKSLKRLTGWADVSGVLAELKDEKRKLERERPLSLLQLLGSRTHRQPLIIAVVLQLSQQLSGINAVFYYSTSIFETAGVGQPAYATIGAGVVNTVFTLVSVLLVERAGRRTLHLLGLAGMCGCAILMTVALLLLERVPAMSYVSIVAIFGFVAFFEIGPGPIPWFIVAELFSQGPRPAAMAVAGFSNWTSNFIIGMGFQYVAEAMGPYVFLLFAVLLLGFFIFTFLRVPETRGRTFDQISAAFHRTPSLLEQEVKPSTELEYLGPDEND
Summary of the method: (§1)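 HEK-293T cells expressing individual GLUT4 alanine mutants were stained 48 h post-transfection with anti-GLUT4 scFv MAbs (2 μg/ml), then biotinylated secondary and streptavidin-PerCP, and read by high-throughput flow cytometry. Where used, cytochalasin B (10 uM final) was given for 30 min before and during primary antibody staining.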

hsGLUT4 P66A = molecular target: T2, hsGLUT4 P66A (human, UniProt P14672 1-509)
T2 sequence: T1 sequence with P66A, A169R
Summary of the method: as §1

hsGLUT4 E315A = molecular target: T3, hsGLUT4 E315A (human, UniProt P14672 1-509)
T3 sequence: T1 sequence with A169R, E315A
Summary of the method: as §1

hsGLUT4 G504A = molecular target: T4, hsGLUT4 G504A (human, UniProt P14672 1-509)
T4 sequence: T1 sequence with A169R, G504A
Summary of the method: as §1

% of binding to wild type GLUT4 (hsGLUT4 R169A): 84%
% of binding to wild type GLUT4 (hsGLUT4 P66A): 78%
% of binding to wild type GLUT4 (hsGLUT4 E315A): 93%
% of binding to wild type GLUT4 (hsGLUT4 G504A): 120%
Molecule: 1F8 (antibody)

B1: AB111 (Fc fusion)
scFv: ALTQPSSVSANPGETVKITCSGSGSWYGWFQQKSPGSAPVTVIYSNDKRPSDIPSRFSGSKSGSTSTLTITGVQVEDEAVYYCGNWDIFGAGTTLTVLGQSSRSSGGGGSSGGGGSAVTLDESGGGLQTPGGALSLVCKASGFTFSSHGMGWVRQAPGKGLEWVASISTGRYTFYAPAVKGRATISRDNGQSTVRLQLNNLRAEDTATYYCTKCAGLNGCGGGEIDAWGHGTEVIVSS
notes: Bivalent scFv-Fc; also called MAb AB111; not shown: Fc fragment of human IgG1, cloned in frame with the scFv
% of binding to wild type GLUT4 (hsGLUT4 R169A): 97%
% of binding to wild type GLUT4 (hsGLUT4 P66A): 90%
% of binding to wild type GLUT4 (hsGLUT4 E315A): 164%
% of binding to wild type GLUT4 (hsGLUT4 G504A): 172%

% of binding to wild type GLUT4 (hsGLUT4 R169A): 119%
% of binding to wild type GLUT4 (hsGLUT4 P66A): 91%
% of binding to wild type GLUT4 (hsGLUT4 E315A): 130%
% of binding to wild type GLUT4 (hsGLUT4 G504A): 8%
B2: AB101 (scFv)
scFv: ALTQPSSVSANPGETVKITCSGSSNSYGWYQQKSPGSAPVTVIYYNDKRPSDIPSRFSGSKSDSTHTLTITGVRAEDEAVYFCGSYDSTYVGIFGAGTTLTVLGQSSRSSGGGGSSGGGGSAVTLDESGGGLQTPGGTLSLVCKASGFTFSSNAMGWVRQAPGKGLEWVAGISSDGRYTKYGSAVKGRATISRDNGQSTVRLQLNNLRAEDTGTYFCAKAFGNNYRRIYAGQIDAWGHGTEVIVSS
notes: Chicken-derived clone used as a control; the four lead clones were tested as scFv-human IgG1 Fc; also called MAb AB101

B3: AB108 (Fc fusion)
scFv: ALTQPSSVSANLGGTVKITCSGSSGSYGWYQQKAPGSAPVTLIYRNDKRPSDIPSRFSGSESGSTGTLTITGVQAEDEAVYFCGGYDSSAGYAAFGAGTTLTVLGQSSRSSGGGGSSGGGGSAVTLDESGGGLQTPGGALSLVCKASGFTFSSHGMGWVRQAPGKGLEWVGSISTGRYTFYAPAVKGRATISRDNGQSTLRLQLNNLRAEDTGTYYCTKCAGLNGCGGGEIDAWGHGTEVIVSS
notes: Bivalent scFv-Fc; also called MAb AB108; not shown: Fc fragment of human IgG1, cloned in frame with the scFv
% of binding to wild type GLUT4 (hsGLUT4 R169A): 108%
% of binding to wild type GLUT4 (hsGLUT4 P66A): 11%
% of binding to wild type GLUT4 (hsGLUT4 E315A): 96%
% of binding to wild type GLUT4 (hsGLUT4 G504A): 141%

— patent US20210238276A1 (INTEGRAL MOLECULAR, published 2021)
